Here are results for eight molecules from US7132258 (UNIVERSITY OF MASSACHUSETTS, dated 2006).

To fix the notation:
B5: 35S-labeled hRARα (in vitro translated) (receptor, human, UniProt P10276 1-462, looked up)
chain: MASNSSSCPTPGGGHLNGYPVPPYAFFFPPMLGGLSPPGALTTLQHQLPVSGYSTPSPATIETQSSSSEEIVPSPPSPPPLPRIYKPCFVCQDKSSGYHYGVSACEGCKGFFRRSIQKNMVYTCHRDKNCIINKVTRNRCQYCRLQKCFEVGMSKESVRNDRNKKKKEVPKPECSESYTLTPEVGELIEKVRKAHQETFPALCQLGKYTTNNSSEQRVSLDIDLWDKFSELSTKCIIKTVEFAKQLPGFTTLTIADQITLLKAACLDILILRICTRYTPEQDTMTFSDGLTLNRTQMHNAGFGPLTDLVFAFANQLLPLEMDDAETGLLSAICLICGDRQDLEQPDRVDMLQEPLLEALKVYVRKRRPSRPHMFPKMLMKITDLRSISAKGAERVITLKMEIPGSMPPLIQEMLENSEGLDTLSGQPGGGGRDGGGLAPPPGSCSPSLSPSSNRSSPATHSP
notes: Made in reticulocyte lysate; also called 35S-RAR

The target of test [1] is T1, RAC3.1 (yeast two-hybrid clone, RAC3 amino acids 401-1204) as Gal4 AD fusion (human, UniProt Q9Y6Q9 401-1204).
T1 construct: Order of the fusion (Gal4 AD at the N-terminus) follows the vector; also called Gal4 AD fusion (RAC3.1)
T1 sequence: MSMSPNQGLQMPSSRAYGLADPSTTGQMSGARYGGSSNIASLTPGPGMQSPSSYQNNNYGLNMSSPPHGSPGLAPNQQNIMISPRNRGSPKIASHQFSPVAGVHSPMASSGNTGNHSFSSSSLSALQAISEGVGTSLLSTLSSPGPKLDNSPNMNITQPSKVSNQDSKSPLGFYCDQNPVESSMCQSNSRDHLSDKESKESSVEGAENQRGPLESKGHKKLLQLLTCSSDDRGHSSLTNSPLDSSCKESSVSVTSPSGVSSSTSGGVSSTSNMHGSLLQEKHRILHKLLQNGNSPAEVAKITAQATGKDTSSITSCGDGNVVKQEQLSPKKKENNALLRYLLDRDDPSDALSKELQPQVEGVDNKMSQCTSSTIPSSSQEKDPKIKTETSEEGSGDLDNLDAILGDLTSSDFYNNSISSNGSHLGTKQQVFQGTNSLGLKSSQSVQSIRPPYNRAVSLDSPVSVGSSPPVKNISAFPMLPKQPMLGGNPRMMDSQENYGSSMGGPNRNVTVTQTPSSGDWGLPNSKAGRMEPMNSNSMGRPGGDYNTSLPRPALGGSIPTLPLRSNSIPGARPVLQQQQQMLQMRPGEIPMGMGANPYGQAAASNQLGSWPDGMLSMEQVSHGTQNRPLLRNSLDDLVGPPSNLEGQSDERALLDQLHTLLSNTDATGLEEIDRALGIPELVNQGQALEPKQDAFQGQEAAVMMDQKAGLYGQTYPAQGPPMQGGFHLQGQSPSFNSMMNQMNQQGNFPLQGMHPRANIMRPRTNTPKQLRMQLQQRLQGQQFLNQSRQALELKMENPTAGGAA
Briefly: yeast two-hybrid, β-galactosidase liquid ONPG assay.

Test [2] addresses T2, VP16 AD-full-length hRARα fusion (human, UniProt P10276 1-462).
T2 construct: mature; also called VP16-RAR
T2 sequence: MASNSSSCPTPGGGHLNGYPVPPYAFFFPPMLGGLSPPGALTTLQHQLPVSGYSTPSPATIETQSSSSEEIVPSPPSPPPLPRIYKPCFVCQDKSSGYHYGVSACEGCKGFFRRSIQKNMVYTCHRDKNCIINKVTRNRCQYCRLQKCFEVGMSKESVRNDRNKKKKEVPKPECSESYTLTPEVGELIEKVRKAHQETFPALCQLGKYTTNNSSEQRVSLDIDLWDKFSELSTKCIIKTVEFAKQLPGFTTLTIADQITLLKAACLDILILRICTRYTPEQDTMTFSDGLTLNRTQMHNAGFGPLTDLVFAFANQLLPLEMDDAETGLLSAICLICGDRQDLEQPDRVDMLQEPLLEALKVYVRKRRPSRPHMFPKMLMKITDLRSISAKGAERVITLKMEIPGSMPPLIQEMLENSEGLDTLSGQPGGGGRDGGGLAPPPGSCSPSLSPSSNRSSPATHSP
Briefly: mammalian two-hybrid, luciferase reporter, with or without 1 µM atRA.

Test [3] concerns the target T1, RAC3.1 (yeast two-hybrid clone, RAC3 …). Briefly: yeast two-hybrid, β-galactosidase ONPG assay, 1 µM ligand.
Test [4] addresses B5. The test is described as follows: far-Western, GST-RAC3-RID on the filter, 35S-labeled receptor, 1 µM all-trans retinoic acid.
Test [5] addresses T3, full-length RAC3 (in vitro translated, 35S-labeled or unlabeled) (human, UniProt Q9Y6Q9 2-1424).
T3 construct: Made in reticulocyte lysate; also called 35S-RAC3
Briefly: trimeric far-Western: unlabeled full-length RAC3 held on CBP fragments C and D, then 35S-labeled RAR, with ligand.

Test [6] concerns the target T1, RAC3.1 (yeast two-hybrid clone, RAC3 …). Briefly: yeast two-hybrid screen for RAR-interacting proteins, Gal4 DBD-full-length hRARα as bait, HIS3 and LacZ reporters.
Test [7] has the same target. The test is described as follows: yeast two-hybrid, with or without 1 µM ligand.

T3 sequence (Q9Y6Q9 other isoform, or with tags, fused parts or gaps limits assumed): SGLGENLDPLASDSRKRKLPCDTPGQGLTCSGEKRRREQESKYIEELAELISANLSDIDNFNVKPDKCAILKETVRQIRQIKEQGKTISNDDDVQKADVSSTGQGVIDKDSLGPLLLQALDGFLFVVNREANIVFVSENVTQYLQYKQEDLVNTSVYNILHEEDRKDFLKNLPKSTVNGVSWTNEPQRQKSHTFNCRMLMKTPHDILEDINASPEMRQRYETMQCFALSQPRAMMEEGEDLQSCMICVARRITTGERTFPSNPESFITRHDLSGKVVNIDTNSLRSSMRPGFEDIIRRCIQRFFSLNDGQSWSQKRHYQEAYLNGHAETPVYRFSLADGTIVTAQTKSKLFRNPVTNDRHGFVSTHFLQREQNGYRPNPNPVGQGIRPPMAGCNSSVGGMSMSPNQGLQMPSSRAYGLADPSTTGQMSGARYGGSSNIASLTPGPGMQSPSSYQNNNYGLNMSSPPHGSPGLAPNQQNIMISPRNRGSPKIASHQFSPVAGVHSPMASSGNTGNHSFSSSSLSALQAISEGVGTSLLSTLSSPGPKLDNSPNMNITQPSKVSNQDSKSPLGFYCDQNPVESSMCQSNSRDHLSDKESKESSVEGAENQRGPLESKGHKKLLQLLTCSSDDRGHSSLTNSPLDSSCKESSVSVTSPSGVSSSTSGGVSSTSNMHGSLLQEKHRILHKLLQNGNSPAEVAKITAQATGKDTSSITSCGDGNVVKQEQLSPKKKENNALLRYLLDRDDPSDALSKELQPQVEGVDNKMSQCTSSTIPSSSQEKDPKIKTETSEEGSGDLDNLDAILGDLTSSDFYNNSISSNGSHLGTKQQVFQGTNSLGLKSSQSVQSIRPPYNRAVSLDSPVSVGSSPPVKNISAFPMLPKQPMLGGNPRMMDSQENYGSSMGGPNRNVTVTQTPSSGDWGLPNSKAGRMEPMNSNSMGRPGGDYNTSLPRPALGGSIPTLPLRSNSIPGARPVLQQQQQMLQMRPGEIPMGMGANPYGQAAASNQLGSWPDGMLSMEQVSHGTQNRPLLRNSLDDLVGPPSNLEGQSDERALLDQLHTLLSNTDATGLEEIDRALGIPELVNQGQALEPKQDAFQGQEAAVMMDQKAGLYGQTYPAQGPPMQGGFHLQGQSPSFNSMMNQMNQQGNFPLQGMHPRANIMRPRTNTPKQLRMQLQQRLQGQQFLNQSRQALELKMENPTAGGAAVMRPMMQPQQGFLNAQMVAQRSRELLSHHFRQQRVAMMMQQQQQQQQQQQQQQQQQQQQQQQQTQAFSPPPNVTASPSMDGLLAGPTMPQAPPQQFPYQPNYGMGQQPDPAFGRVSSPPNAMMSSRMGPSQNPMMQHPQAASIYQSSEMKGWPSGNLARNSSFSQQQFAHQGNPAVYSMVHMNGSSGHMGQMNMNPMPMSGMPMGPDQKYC

B1: SNF1 (other, UniProt P06782 1-633, looked up)
chain: MSSNNNTNTAPANANSSHHHHHHHHHHHHHGHGGSNSTLNNPKSSLADGAHIGNYQIVKTLGEGSFGKVKLAYHTTTGQKVALKIINKKVLAKSDMQGRIEREISYLRLLRHPHIIKLYDVIKSKDEIIMVIEYAGNELFDYIVQRDKMSEQEARRFFQQIISAVEYCHRHKIVHRDLKPENLLLDEHLNVKIADFGLSNIMTDGNFLKTSCGSPNYAAPEVISGKLYAGPEVDVWSCGVILYVMLCRRLPFDDESIPVLFKNISNGVYTLPKFLSPGAAGLIKRMLIVNPLNRISIHEIMQDDWFKVDLPEYLLPPDLKPHPEEENENNDSKKDGSSPDNDEIDDNLVNILSSTMGYEKDEIYESLESSEDTPAFNEIRDAYMLIKENKSLIKDMKANKSVSDELDTFLSQSPPTFQQQSKSHQKSQVDHETAKQHARRMASAITQQRTYHQSPFMDQYKEEDSTVSILPTSLPQIHRANMLAQGSPAASKISPLVTKKSKTRWHFGIRSRSYPLDVMGEIYIALKNLGAEWAKPSEEDLWTIKLRWKYDIGNKTNTNEKIPDLMKMVIQLFQIETNNYLVDFKFDGWESSYGDDTTVSNISEDEMSTFSAYPFLHLTTKLIMELAVNSQSN
Consider B1, for which the binding result in test [1] was “no binding”.

B2: RAC3 amino acids 401-624 as GAL4 DBD fusion (pCMX-Gal) (other)
chain: MKLLSSIEQACDICRLKKLKCSKEKPKCAKCLKNNWECRYSPKTKRSPLTRAHLTEVESRLERLEQLFLLIFPREDLDMILKMDSLQDIKALLTGLFVQDNVNKDAVTDRLASVETDMPLTLRQHRISATSSSEESSNKGQRQLTVSMSMSPNQGLQMPSSRAYGLADPSTTGQMSGARYGGSSNIASLTPGPGMQSPSSYQNNNYGLNMSSPPHGSPGLAPNQQNIMISPRNRGSPKIASHQFSPVAGVHSPMASSGNTGNHSFSSSSLSALQAISEGVGTSLLSTLSSPGPKLDNSPNMNITQPSKVSNQDSKSPLGFYCDQNPVESSMCQSNSRDHLSDKESKESSVEGAENQRGPLESKGHKKLLQL
notes: domain: GAL4 DBD
B2: the binding result in test [2] was “no binding”.

B3: Gal4 DBD fusion of full-length hRXRα (receptor, UniProt P04386 1-147, looked up)
chain: MKLLSSIEQACDICRLKKLKCSKEKPKCAKCLKNNWECRYSPKTKRSPLTRAHLTEVESRLERLEQLFLLIFPREDLDMILKMDSLQDIKALLTGLFVQDNVNKDAVTDRLASVETDMPLTLRQHRISATSSSEESSNKGQRQLTVSMDTKHFLPLDFSTQVNSSLTSPTGRGSMAAPSLHPSLGPGIGSPGQLHSPISTLSSPINGMGPPFSVISSPMGPHSMSVPTTPTLGFSTGSPQLSSPMNPVSSSEDIKPPLGLNGVLKVPAHPSGNMASFTKHICAICGDRSSGKHYGVYSCEGCKGFFKRTVRKDLTYTCRDNKDCLIDKRQRNRCQYCRYQKCLAMGMKREAVQEERQRGKDRNENEVESTSSANEDMPVERILEAELAVEPKTETYVEANMGLNPSSPNDPVTNICQAADKQLFTLVEWAKRIPHFSELPLDDQVILLRAGWNELLIASFSHRSIAVKDGILLATGLHVHRNSAHSAGVGAIFDRVLTELVSKMRDMQMDKTELGCLRAIVLFNPDSKGLSNPAEVEALREKVYASLEAYCKHKYPEQPGRFAKLLLRLPALRSIGLKCLEHLFFFKLIGDTPIDTFLMEMLEAPHQMT
notes: domain: Gal4 DBD;mature
For B3, the binding result in test [3] is “binds”.

B4: GST-RAC3-RID fusion (other)
chain: LESKGHKKLLQLLTCSSDDRGHSSLTNSPLDSSCKESSVSVTSPSGVSSSTSGGVSSTSNMHGSLLQEKHRILHKLLQNGNSPAEVAKITAQATGKDTSSITSCGDGNVVKQEQLSPKKKENNALLRYLLDRDDPSDALS
notes: Purified from DH5α cells, separated by SDS-PAGE, blotted, denatured and renatured on the filter; also called GST-RID fusion; not shown: glutathione S-transferase (GST) module
In the case of B4, the binding result in test [4] is “binds”.

As for B5, the binding result in test [5] is listed as “binds”.

B6: RAC3 amino acids 401-695 as GAL4 DBD fusion (pCMX-Gal) (other)
chain: MKLLSSIEQACDICRLKKLKCSKEKPKCAKCLKNNWECRYSPKTKRSPLTRAHLTEVESRLERLEQLFLLIFPREDLDMILKMDSLQDIKALLTGLFVQDNVNKDAVTDRLASVETDMPLTLRQHRISATSSSEESSNKGQRQLTVSMSMSPNQGLQMPSSRAYGLADPSTTGQMSGARYGGSSNIASLTPGPGMQSPSSYQNNNYGLNMSSPPHGSPGLAPNQQNIMISPRNRGSPKIASHQFSPVAGVHSPMASSGNTGNHSFSSSSLSALQAISEGVGTSLLSTLSSPGPKLDNSPNMNITQPSKVSNQDSKSPLGFYCDQNPVESSMCQSNSRDHLSDKESKESSVEGAENQRGPLESKGHKKLLQLLTCSSDDRGHSSLTNSPLDSSCKESSVSVTSPSGVSSSTSGGVSSTSNMHGSLLQEKHRILHKLLQNGNSP
notes: domain: GAL4 DBD
For B6, the binding result in test [2] is on record as “no binding”.

B7: Gal4 DBD fusion of full-length human RARα (receptor, UniProt P04386 1-147, looked up)
chain: MKLLSSIEQACDICRLKKLKCSKEKPKCAKCLKNNWECRYSPKTKRSPLTRAHLTEVESRLERLEQLFLLIFPREDLDMILKMDSLQDIKALLTGLFVQDNVNKDAVTDRLASVETDMPLTLRQHRISATSSSEESSNKGQRQLTVSMASNSSSCPTPGGGHLNGYPVPPYAFFFPPMLGGLSPPGALTTLQHQLPVSGYSTPSPATIETQSSSSEEIVPSPPSPPPLPRIYKPCFVCQDKSSGYHYGVSACEGCKGFFRRSIQKNMVYTCHRDKNCIINKVTRNRCQYCRLQKCFEVGMSKESVRNDRNKKKKEVPKPECSESYTLTPEVGELIEKVRKAHQETFPALCQLGKYTTNNSSEQRVSLDIDLWDKFSELSTKCIIKTVEFAKQLPGFTTLTIADQITLLKAACLDILILRICTRYTPEQDTMTFSDGLTLNRTQMHNAGFGPLTDLVFAFANQLLPLEMDDAETGLLSAICLICGDRQDLEQPDRVDMLQEPLLEALKVYVRKRRPSRPHMFPKMLMKITDLRSISAKGAERVITLKMEIPGSMPPLIQEMLENSEGLDTLSGQPGGGGRDGGGLAPPPGSCSPSLSPSSNRSSPATHSP
notes: domain: Gal4 DBD;mature; also called full-length hRARα; pGBT-hRARα
Take B7: the binding result in test [6] was “binds”.

B8: VDR364* (LBD of hVDR truncated at amino acid 364) as Gal4 DBD fusion (receptor, UniProt P04386 1-147, looked up)
chain: MKLLSSIEQACDICRLKKLKCSKEKPKCAKCLKNNWECRYSPKTKRSPLTRAHLTEVESRLERLEQLFLLIFPREDLDMILKMDSLQDIKALLTGLFVQDNVNKDAVTDRLASVETDMPLTLRQHRISATSSSEESSNKGQRQLTVSMKEFILTDEEVQRKREMILKRKEEEALKDSLRPKLSEEQQRIIAILLDAHHKTYDPTYSDFCQFRPPVRVNDGGGSHPSRPNSRHTPSFSGDSSSSCSDHCITSSDMMDSSSFSNLDLSEEDSDDPSVTLELSQLSMLPHLADLVSYSIQKVIGFAKMIPGFRDLTSEDQIVLLKSSAIEVIMLRSNESFTMDDMSWTCGNQDYKYRVSDVTKAGHSLELIEPLIKFQVGLKKLNLHEEEHVLLMAICIVSPDRPGVQDAALIEAIQDRLSNTLQ
notes: domain: Gal4 DBD;domain: LBD of hVDR truncated at amino acid 364
Consider B8, for which, in test [7], the binding result is given as “no binding”.
